Measurements published in the supplement of paper PMC7125110.
± gives the standard error. For some assays here: Fewer inactive variants are shown than the library holds.

B1: glmS ribozyme (parent)
chain: AUAAAAGCGCCAGAACUACAGAAAUGUAGUUGACGAGGAGGAGGUUUAUCGAAUUUUCGGCGGAUGCCUCCAAA

How the values were obtained:
Details in all cases: with glucosamine-6-phosphate
glucosamine-6-phosphate [1] = variants of: B1; experiment: kcat; higher = faster cleavage; RNA array
How it was run: (§1)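 Weighted Michaelis–Menten fits across concentrations supplied kcat and KM, based on kobs from one- or two-exponential decay fits to normalised per-tile medians. The data came from barcoded ribozyme variants transcribed in situ by E. coli RNA polymerase on sequenced MiSeq chips and tracked at 37 °C by a hybridised Cy3 probe. Glucosamine-6-phosphate (40 μM to 10 mM) in HEPES/KCl/Mg(OAc)2 buffer was flowed in.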

glucosamine-6-phosphate [2] = variants of: B1; experiment: self-cleavage kobs at 10000 uM GlcN6P; higher = faster cleavage; RNA array
How it was run: as §1

glucosamine-6-phosphate [3] = variants of: B1; experiment: self-cleavage kobs at 160 uM GlcN6P; higher = faster cleavage; RNA array
How it was run: as §1

glucosamine-6-phosphate [4] = variants of: B1; experiment: self-cleavage kobs at 640 uM GlcN6P; higher = faster cleavage; RNA array
How it was run: as §1

glucosamine-6-phosphate [5] = variants of: B1; experiment: self-cleavage kobs at 2500 uM GlcN6P; higher = faster cleavage; RNA array
How it was run: as §1

glucosamine-6-phosphate [6] = variants of: B1; experiment: KM; higher = weaker cofactor use; RNA array
How it was run: as §1

glucosamine-6-phosphate [7] = variants of: B1; experiment: self-cleavage kobs at 40 uM GlcN6P; higher = faster cleavage; RNA array
How it was run: as §1

Variant | kcat (glucosamine-6-phosphate [1]) | self-cleavage kobs at 10000 uM GlcN6P (glucosamine-6-phosphate [2]) | self-cleavage kobs at 160 uM GlcN6P (glucosamine-6-phosphate [3]) | self-cleavage kobs at 640 uM GlcN6P (glucosamine-6-phosphate [4]) | self-cleavage kobs at 2500 uM GlcN6P (glucosamine-6-phosphate [5]) | KM (glucosamine-6-phosphate [6]) | self-cleavage kobs at 40 uM GlcN6P (glucosamine-6-phosphate [7])
C50A C58G | < 1e-05 s⁻¹ | < 1e-05 s⁻¹ |  |  |  |  | 
U47G C61G | 1.1e-05 ± 2e-06 s⁻¹ |  |  |  |  |  | 
A15C C70G | 7.11e-05 ± 7.6e-06 s⁻¹ | 5.86e-05 ± 9.3e-06 s⁻¹ | 3.9e-05 ± 9.7e-06 s⁻¹ | 6.25e-05 ± 8.5e-06 s⁻¹ | 8.13e-05 ± 1e-05 s⁻¹ |  | 
A39U C68U | 0.00901 ± 0.0018 s⁻¹ | 0.00694 ± 0.0011 s⁻¹ | 0.000829 ± 9e-05 s⁻¹ | 0.00309 ± 0.00026 s⁻¹ | 0.00636 ± 0.00063 s⁻¹ | 1340 ± 420 µM | 0.000444 ± 8.6e-05 s⁻¹
G13A | 0.00142 ± 0.00018 s⁻¹ | 0.000945 ± 3.6e-05 s⁻¹ | 4.65e-05 ± 1.7e-06 s⁻¹ | 0.000162 ± 3.8e-06 s⁻¹ | 0.00057 ± 3.3e-05 s⁻¹ | 4830 ± 750 µM | 1.56e-05 ± 1.7e-06 s⁻¹
C10U U47G | < 1e-05 s⁻¹ |  | < 1e-05 s⁻¹ |  |  |  | 
G26U U65G | 0.00661 ± 0.0013 s⁻¹ | 0.00449 ± 0.001 s⁻¹ | 0.00028 ± 0.00012 s⁻¹ | 0.000733 ± 0.00016 s⁻¹ | 0.00291 ± 0.0011 s⁻¹ | 4570 ± 1200 µM | 6.93e-05 ± 3.2e-05 s⁻¹
G37U U46G | < 1e-05 s⁻¹ |  |  | < 1e-05 s⁻¹ |  |  | 
G41U C58A | 1.21e-05 ± 4e-06 s⁻¹ |  |  |  |  |  | 
A12U U49G | 0.00213 ± 0.00037 s⁻¹ | 0.00167 ± 0.00018 s⁻¹ | 9.35e-05 ± 1.5e-05 s⁻¹ | 0.000495 ± 7.3e-05 s⁻¹ | 0.000912 ± 0.00012 s⁻¹ | 2950 ± 780 µM | 3.38e-05 ± 7.4e-06 s⁻¹
G40C A42U | 3.99e-05 ± 4.6e-06 s⁻¹ | 3.64e-05 ± 1.1e-05 s⁻¹ |  |  | 4.68e-05 ± 2.2e-05 s⁻¹ |  | 
U31A U47G | 0.00294 ± 0.0012 s⁻¹ | 0.00266 ± 0.00079 s⁻¹ | 0.000353 ± 7.9e-05 s⁻¹ | 0.00063 ± 0.00014 s⁻¹ | 0.00264 ± 0.00082 s⁻¹ |  | 7.57e-05 ± 1.9e-05 s⁻¹
G63U C68A | 1.22e-05 ± 2.6e-06 s⁻¹ |  |  |  |  |  | 
A15U U49C | < 1e-05 s⁻¹ | < 1e-05 s⁻¹ |  | < 1e-05 s⁻¹ |  |  | < 1e-05 s⁻¹
G37U A64C | < 1e-05 s⁻¹ |  |  |  |  |  | < 1e-05 s⁻¹
C11U C58G | 3.35e-05 ± 2.6e-07 s⁻¹ | 3.28e-05 ± 7.7e-06 s⁻¹ |  |  | 3.13e-05 ± 1e-05 s⁻¹ | 188 ± 18 µM | 
A6C C71U | 9.59e-05 ± 6.3e-06 s⁻¹ | 8.35e-05 ± 9.7e-06 s⁻¹ |  | 2.89e-05 ± 1.2e-05 s⁻¹ | 7.07e-05 ± 9.3e-06 s⁻¹ | 1150 ± 280 µM | 

Variant | kcat (glucosamine-6-phosphate [1]) | self-cleavage kobs at 10000 uM GlcN6P (glucosamine-6-phosphate [2]) | self-cleavage kobs at 160 uM GlcN6P (glucosamine-6-phosphate [3]) | self-cleavage kobs at 640 uM GlcN6P (glucosamine-6-phosphate [4]) | self-cleavage kobs at 2500 uM GlcN6P (glucosamine-6-phosphate [5]) | KM (glucosamine-6-phosphate [6]) | self-cleavage kobs at 40 uM GlcN6P (glucosamine-6-phosphate [7])
U31C A52G | 0.000531 ± 5.8e-05 s⁻¹ | 0.000358 ± 3.4e-05 s⁻¹ | 2.13e-05 ± 8.7e-06 s⁻¹ | 6.14e-05 ± 7.4e-06 s⁻¹ | 0.000196 ± 2.2e-05 s⁻¹ | 4640 ± 810 µM | 
U46G A64C | 1.9e-05 ± 5.9e-07 s⁻¹ |  |  |  |  | 227 ± 47 µM | < 1e-05 s⁻¹
G13A U45C | 3.07e-05 ± 4.9e-06 s⁻¹ | 2.82e-05 ± 1.3e-05 s⁻¹ | < 1e-05 s⁻¹ |  |  |  | 
G32U U56A | 0.00196 ± 0.00014 s⁻¹ | 0.0011 ± 9.2e-05 s⁻¹ | 3.3e-05 ± 1.3e-05 s⁻¹ | 0.000156 ± 2.9e-05 s⁻¹ | 0.000494 ± 7.9e-05 s⁻¹ | 7730 ± 900 µM | 
C10U A36U | < 1e-05 s⁻¹ | < 1e-05 s⁻¹ | < 1e-05 s⁻¹ |  |  |  | < 1e-05 s⁻¹
G13A A36C | < 1e-05 s⁻¹ | < 1e-05 s⁻¹ |  |  |  |  | 
U45C U54A | 0.00783 ± 0.0023 s⁻¹ | 0.00436 ± 0.001 s⁻¹ | 0.000161 ± 3.3e-05 s⁻¹ | 0.00072 ± 0.00011 s⁻¹ | 0.00255 ± 0.00053 s⁻¹ | 6680 ± 2400 µM | 
U47G C50U | 3.97e-05 ± 1.6e-06 s⁻¹ | 3.69e-05 ± 1.2e-05 s⁻¹ |  |  | 3.64e-05 ± 1.5e-05 s⁻¹ | 433 ± 100 µM | 
G51A U69G | 5.93e-05 ± 1.1e-05 s⁻¹ |  | 4.53e-05 ± 1.5e-05 s⁻¹ | 6.08e-05 ± 1.6e-05 s⁻¹ | 5.96e-05 ± 1.5e-05 s⁻¹ |  | 
A12G U55C | 0.00114 ± 0.00024 s⁻¹ | 0.000755 ± 9.7e-05 s⁻¹ | 4.44e-05 ± 7.8e-06 s⁻¹ | 0.000118 ± 1.7e-05 s⁻¹ | 0.000461 ± 7.4e-05 s⁻¹ | 4740 ± 1400 µM | 
G59A | 8.71e-05 ± 2.2e-06 s⁻¹ | 7.42e-05 ± 1.2e-06 s⁻¹ |  | 2.2e-05 ± 1.9e-06 s⁻¹ | 5.42e-05 ± 1.8e-06 s⁻¹ | 1670 ± 170 µM | 
G7U C8G C50A | 2.71e-05 ± 5.9e-06 s⁻¹ |  |  |  |  |  | 
C16U U30A | 0.003 ± 0.00083 s⁻¹ | 0.00242 ± 0.00027 s⁻¹ | 0.000131 ± 2.6e-05 s⁻¹ | 0.000648 ± 0.00011 s⁻¹ | 0.00171 ± 0.00029 s⁻¹ | 2310 ± 910 µM | 7.15e-05 ± 7.9e-06 s⁻¹
A52U A53G | 0.000144 ± 7.6e-06 s⁻¹ | 0.000111 ± 1e-05 s⁻¹ |  | 3.11e-05 ± 1.3e-05 s⁻¹ | 6.31e-05 ± 9.5e-06 s⁻¹ | 2980 ± 430 µM | < 1e-05 s⁻¹
C67A C71G | 7.2e-05 ± 7e-06 s⁻¹ | 6e-05 ± 6.9e-06 s⁻¹ | 5.48e-05 ± 8.6e-06 s⁻¹ | 6.96e-05 ± 6.6e-06 s⁻¹ | 8.16e-05 ± 8.2e-06 s⁻¹ |  | 
G29U A52G | 0.00036 ± 7.1e-05 s⁻¹ | 0.00029 ± 3.3e-05 s⁻¹ |  | 6.73e-05 ± 9.7e-06 s⁻¹ | 0.000127 ± 2e-05 s⁻¹ | 3340 ± 1200 µM | 
U47C U56G | 0.00245 ± 0.00054 s⁻¹ | 0.00243 ± 0.0003 s⁻¹ | 0.000196 ± 4e-05 s⁻¹ | 0.000708 ± 8.7e-05 s⁻¹ | 0.00108 ± 0.00025 s⁻¹ | 1580 ± 540 µM | 7.97e-05 ± 1.3e-05 s⁻¹
